Results on 2 molecules are retold here after patent US20060172925, “Thio-siRNA aptamers” (Board Of Regents, The University Of Texas System, published 2006).

The series deals with VEE capsid protein (Venezuelan equine encephalitis virus, UniProt P09592 P09592:1-275). Kind of series: EMSA. To be noted: label: biotin. Background: Mobility shift assays separate free from complexed probe on a gel.
VEE capsid protein, sequence (P09592 1-275, one chain of several): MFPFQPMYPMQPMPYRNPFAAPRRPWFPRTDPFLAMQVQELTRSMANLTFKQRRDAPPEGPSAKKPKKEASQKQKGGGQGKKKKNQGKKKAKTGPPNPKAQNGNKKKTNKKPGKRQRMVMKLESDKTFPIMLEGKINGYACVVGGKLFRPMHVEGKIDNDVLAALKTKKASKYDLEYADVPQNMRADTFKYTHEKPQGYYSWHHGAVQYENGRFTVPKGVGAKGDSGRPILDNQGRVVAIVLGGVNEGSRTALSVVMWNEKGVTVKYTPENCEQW

Take GGUUGCGCCCACACGCAAACACCGCCCUUCGACAUGAGGCCCGGC (ssRNA) [KLG_M_45]: the binding result is on record as “binds”.

With GGGAGCUCAGAAUAAACGCUCAAGGCCCUUGCGCCCACACGCAAGC (ssRNA) [KLG_5_46], the binding result is “binds”.
